Source: paper PMC4335507

Biological target: GST-Ran Q69L, GTP-bound (UniProt Q9VZ23)
Assay: pull-down; GST-Ran loaded with GDP or GST-Ran Q69L loaded with GTP γS, or GST alone, on beads incubated with TIM-V5 expressed in S2 cells, 4 h at 4°C; bound TIM-V5 detected with anti-V5

Substance: V5-tagged wild-type TIM (TIMELESS) (from UniProt P49021 1-1398) (natural protein)
- ratio of binding, Ran GTP over Ran GDP: 1.64
